Where a chain is given by its changes, count along the chain named. One block for each binder: values may come before it.
Biological target: MBP::PP1β (UniProt P62140 1-327)
Assay: pull-down

Chain of MBP::PP1β (P62140 whole entry): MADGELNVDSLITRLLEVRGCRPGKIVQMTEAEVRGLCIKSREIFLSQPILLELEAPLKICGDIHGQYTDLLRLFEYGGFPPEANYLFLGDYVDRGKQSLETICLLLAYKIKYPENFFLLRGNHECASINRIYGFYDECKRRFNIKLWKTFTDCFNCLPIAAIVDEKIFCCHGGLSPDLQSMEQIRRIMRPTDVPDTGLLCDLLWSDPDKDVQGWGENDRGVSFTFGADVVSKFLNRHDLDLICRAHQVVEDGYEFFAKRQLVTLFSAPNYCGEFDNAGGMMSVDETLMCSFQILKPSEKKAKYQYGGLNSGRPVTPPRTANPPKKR

- binding result: binds
B1: GST::MKLP1_(620-858) (wild type) (domain or fragment, UniProt Q02241-2 620-856, looked up)
chain: ETTMKWEKECERRVAAKQLEMQNKLWVKDEKLKQLKAIVTEPKTEKPERPSRERDREKVTQRSVSPSPVPLLFQPDQNAPPIRLRHRRSRSAGDRWVDHKPASNMQTETVMQPHVPHAITVSVANEKALAKCEKYMLTHQELASDGEIETKLIKGDIYKTRGGGQSVQFTDIETLKQESPNGSRKRRSSTVAPAQPDGAESEWTDVETRCSVAVEMRAGSQLGPGYQHHAQPKRKKP

- binding result: binds
B2: GST::MKLP1_(620-858) AQA mutant (domain or fragment, UniProt Q02241-2 620-856, looked up)
chain: B1 chain with V167A, F169A

From article doi:10.1101/569459 (bioRxiv, 2019)
